Results from patent US20170290892A1, “POLYMERIC […]” (PEG BIOSCIENCES, INC., priority 2014, published 2017).

Assay: Degradation of 20K OGF-PEG ester conjugate and release of OGF in human plasma at 37 °C
Assay type: in vitro ADME
Conditions: incubated in human plasma at 37 °C, 0.5 to 24 hours; reversed-phase HPLC or size exclusion chromatography
Method: Experiments for degradation of the 20K Tyr-gly-gly-phe-met-C(O)—O-mPEG conjugate (20K OGF-C(O)—O-mPEG or 20K OGF—PEG ester) and the release of OGF were conducted in human plasma at 37 ° C. The OGF—PEG conjugate containing hydrolysable ester linkages was incubated in human plasma at 37° C. for various periods of time, ranging from 0.5 to 24 hours. An aliquot plasma sample was withdrawn and treated with acetonitrile or acetonitrile/methanol organic solvent, vortexed, centrifuged, and concentrated. The solution residue was then analyzed by reversed-phase HPLC chromatography or size exclusion chromatography to check the amount of OGF-PEG and the released amount of OGF at various time points. The plasma T1/2 for 20K OGF-C(O)—O-mPEG was about 5 hours.

Question: With “20K Tyr-Gly-Gly-Phe-Met-C(O)O-mPEG [20K OGF-C(O)—O-mPEG]” as the substance, how does the “plasma T1/2” value read?
Answer: The value was “about 5 hours”.
